The target of the experiment is T1, hJag1-rFc (human; rabbit, UniProt P78504 34-1067; P01870 96-323, limits assumed).
T1 construct: also called hJag-rFc; control antigen
Briefly: FACS of transfected HEK-293 cells incubated with hJag-rFc and PE-labeled anti-rabbit Fc antibody. How it is done: The effect of carrier plasmid on the transfection and display of an Ab-encoding plasmid was tested. The single chain anti-DLL4 antibody (sc21M18) described above was transfected with varying ratios of carrier plasmid. In this study, the carrier plasmid encoded an irrelevant […] antibody (sc18R5). The cells were also transfected with the Membrane-MAb(hIgG2)-GFP construct. The concentration of Ab library plasmid in the cells could be inferred from the level of surface expression of the anti-DLL4 antibody molecule. Approximately 5×10⁶ HEK-293 cells were transfected with plasmid DNA and harvested after 48 hours. The plasmid DNA was a mixture of sc21M18 and sc18R5, wherein the ratio of sc21M18 to sc18R5 varied from 1 to 10,000-fold excess of sc18R5 (1, 10, 100, 1000 or 10,000-fold excess). For detection of a functional anti-DLL4 antibody molecule on the cell surface, transfected cells were incubated with an hDLL4-rFc fusion protein. Bound hDLL4-rFc was detected with a PE-labeled anti-rabbit Fc antibody. The percentage of cells which expressed anti-DLL4 antibody was determined by FACS analysis. Cells were also incubated with a control antigen (hJag-rFc, -▪-) or only the PE-labeled anti-rabbit Fc antibody (-▴-).

T1 sequence (P78504 other isoform, or with tags, fused parts or gaps limits assumed): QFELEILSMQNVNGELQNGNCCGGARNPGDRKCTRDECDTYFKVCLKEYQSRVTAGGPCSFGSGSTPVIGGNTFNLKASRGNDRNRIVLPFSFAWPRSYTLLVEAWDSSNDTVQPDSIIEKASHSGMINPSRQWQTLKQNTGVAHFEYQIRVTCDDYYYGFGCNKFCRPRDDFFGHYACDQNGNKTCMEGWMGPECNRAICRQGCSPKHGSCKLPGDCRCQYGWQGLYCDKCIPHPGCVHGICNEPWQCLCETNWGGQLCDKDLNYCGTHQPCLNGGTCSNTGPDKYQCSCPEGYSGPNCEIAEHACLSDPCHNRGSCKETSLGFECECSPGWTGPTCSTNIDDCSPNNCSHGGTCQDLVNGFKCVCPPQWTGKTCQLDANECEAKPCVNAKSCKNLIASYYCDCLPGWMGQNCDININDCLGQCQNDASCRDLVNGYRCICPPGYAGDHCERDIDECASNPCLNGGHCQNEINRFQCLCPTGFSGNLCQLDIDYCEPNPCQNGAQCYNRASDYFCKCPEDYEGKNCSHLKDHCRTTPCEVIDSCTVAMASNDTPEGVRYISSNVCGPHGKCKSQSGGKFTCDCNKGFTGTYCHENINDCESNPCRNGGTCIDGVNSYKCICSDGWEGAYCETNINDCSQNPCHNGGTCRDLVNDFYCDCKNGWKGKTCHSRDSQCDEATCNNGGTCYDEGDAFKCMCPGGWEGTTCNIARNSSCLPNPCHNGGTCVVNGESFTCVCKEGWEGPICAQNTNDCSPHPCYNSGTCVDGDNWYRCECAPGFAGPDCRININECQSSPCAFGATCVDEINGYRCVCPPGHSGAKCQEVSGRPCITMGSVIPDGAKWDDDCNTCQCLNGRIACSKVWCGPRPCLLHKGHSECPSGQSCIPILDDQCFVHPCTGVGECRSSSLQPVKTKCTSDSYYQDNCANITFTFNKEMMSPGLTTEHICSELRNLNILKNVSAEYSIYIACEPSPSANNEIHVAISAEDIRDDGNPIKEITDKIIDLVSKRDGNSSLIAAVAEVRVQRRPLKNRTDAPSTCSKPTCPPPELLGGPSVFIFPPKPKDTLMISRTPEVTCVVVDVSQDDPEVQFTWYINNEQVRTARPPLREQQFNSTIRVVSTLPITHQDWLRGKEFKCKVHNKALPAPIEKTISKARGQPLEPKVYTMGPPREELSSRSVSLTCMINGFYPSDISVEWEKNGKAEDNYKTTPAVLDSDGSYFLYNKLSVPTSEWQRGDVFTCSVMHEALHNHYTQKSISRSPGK

B1: heterodimeric antibody molecule: single chain anti-DLL4 antibody sc21M18 associated with the Membrane-MAb(hIgG2)-GFP protein on the surface of HEK-293 cells (antibody)
chain 1: DIVMTQSPDSLAVSLGERATISCRASESVDNYGISFMKWFQQKPGQPPKLLIYAASNQGSGVPDRFSGSGSGTDFTLTISSLQAEDVAVYYCQQSKEVPWTFGGGTKVEIKRTVAAPSVFIFPPSDEQLKSGTASVVCLLNNFYPREAKVQWKVDNALQSGNSQESVTEQDSKDSTYSLSSTLTLSKADYEKHKVYACEVTHQGLSSPVTKSFNRGECGGGGGSGGGGSGGGGSGGGGSGGGGSGGGGSQVQLVQSGAEVKKPGASVKISCKASGYSFTAYYIHWVKQAPGQGLEWIGYISSYNGATNYNQKFKGRVTFTTDTSTSTAYMELRSLRSDDTAVYYCARDYDYDVGMDYWGQGTLVTVSSASTKGPSVFPLAPCSRSTSESTAALGCLVKDYFPEPVTVSWNSGALTSGVHTFPAVLQSSGLYSLSSVVTVPSSNFGTQTYTCNVDHKPSNTKVDKTVERKCCVECPPCPAPPVAGPSVFLFPPKPKDTLMISRTPEVTCVVVDVSHEDPEVQFNWYVDGVEVHNAKTKPREEQFNSTFRVVSVLTVVHQDWLNGKEYKCKVSNKGLPAPIEKTISKTKGQPREPQVYTLPPSREEMTKNQVSLTCLVKGFYPSDIAVEWESNGQPENNYKTTPPMLDSDGSFFLYSKLTVDKSRWQQGNVFSCSVMHEALHNHYTQKSLSLSPGK
chain 2: not shown
notes: also called anti-DLL4 antibody molecule
On to B1, for which the binding result is on record as “no binding”.

(Values after patent publication US20110287979A1 (ONCOMED PHARMACEUTICALS, published 2011).)
